What was measured:
[1] = target: HLA-B*4001 (human); assay: competition binding assay, purified HLA class I
[2] = target: HLA-B*4403 (human); assay: competition binding assay, purified HLA class I

WEELSML (MAGE2 position 234, 7-mer) (peptide)
IC50 [1]: 10.4 µM
IC50 [2]: 2.01 µM
